# Assay results published in patent US11767351B2, “Recombinant lectin and uses thereof” (CITY OF HOPE, priority 2017, dated 2023).
# “Also recorded” adds a separate entry of the source.
# Columns and labels:
# [1] = Glycan microarray (RayBio Glycan Array 100); type: binding; settings: biotin-labeled SHAs 20 μg/ml (1×) and 2 μg/ml (0.1×), absence of L-rhamnose
# [2] = Glycan microarray (RayBio Glycan Array 100); type: binding; settings: biotin-labeled SHAs 20 μg/ml (1×) and 2 μg/ml (0.1×), absence of L-rhamnose; remark: listed apart in the source
# [3] = Glycan microarray (RayBio Glycan Array 100); type: binding; settings: biotin-labeled SHAs 20 μg/ml (1×) and 2 μg/ml (0.1×), absence of L-rhamnose; remark: listed apart in the source
# [4] = Glycan microarray (RayBio Glycan Array 100); type: binding; settings: biotin-labeled SHAs 20 μg/ml (1×) and 2 μg/ml (0.1×), absence of L-rhamnose; remark: listed apart in the source
# [5] = Glycan microarray (RayBio Glycan Array 100); type: binding; settings: biotin-labeled SHAs 20 μg/ml (1×) and 2 μg/ml (0.1×), absence of L-rhamnose; remark: listed apart in the source
# [6] = Glycan microarray (RayBio Glycan Array 100); type: binding; settings: biotin-labeled SHAs 20 μg/ml (1×) and 2 μg/ml (0.1×), absence of L-rhamnose; remark: listed apart in the source
# [7] = Glycan microarray (RayBio Glycan Array 100); type: binding; settings: biotin-labeled SHAs 20 μg/ml (1×) and 2 μg/ml (0.1×), absence of L-rhamnose; remark: listed apart in the source
# [8] = Glycan microarray (RayBio Glycan Array 100); type: binding; settings: biotin-labeled SHAs 20 μg/ml (1×) and 2 μg/ml (0.1×), absence of L-rhamnose; remark: listed apart in the source
# [9] = Glycan microarray (RayBio Glycan Array 100); type: binding; settings: biotin-labeled SHAs 20 μg/ml (1×) and 2 μg/ml (0.1×), absence of L-rhamnose; remark: listed apart in the source
# [10] = Glycan microarray (RayBio Glycan Array 100); type: binding; settings: biotin-labeled SHAs 20 μg/ml (1×) and 2 μg/ml (0.1×), absence of L-rhamnose; remark: listed apart in the source
# [11] = Glycan microarray (RayBio Glycan Array 100); type: binding; settings: biotin-labeled SHAs 20 μg/ml (1×) and 2 μg/ml (0.1×), absence of L-rhamnose; remark: listed apart in the source
# [12] = Glycan microarray (RayBio Glycan Array 100); type: binding; settings: glycans listed in Table 4
# Procedure: Glycan microarray analyses—Microarray analysis was performed according to the manufacturer recommendations using RayBio Glycan Array 100 (RayBiotech, Norcross Ga.) slides. Each slide contains four sub-microarrays printed with 100 synthetic glycans. Briefly, 200 μL of 0.1 mg/mL of both archived SHA and rSHA were dialyzed overnight at 4° C. against 1×PBS dialysis buffer to avoid contaminating samples with amines prior to biotinylation. Dialyzed samples were incubated with biotin-containing reaction solution at 22° C. for 30 min. Sub-arrays were blocked for 30 min at 22° C. After biotinylated SHA samples were diluted with 1×PBS, 400 μL of each sample was added to each sub-array. Slide #1 sub-arrays were incubated with 400 μL of 20 μg/mL (1×) or 2 μg/mL (0.1×) SHA, in the absence or presence of 0.2 M L-Rhamnose. Slide #2 sub-arrays were incubated with 400 μL of 20 μg/mL (1×) or 2 μg/mL of rSHA (0.1×), in the absence or presence of 0.2 M L-rhamnose. Slides were incubated for 16 h at 4° C. for highest intensities. […]
# (§1) Therefore, a novel construct that encoded an E. coli codon-optimized, His-tagged, Trx-SMT3 (SUMO family protein)-SHA(A108E) fusion protein was expressed. […] The glycan binding was measured using two distinct concentrations of biotin-labeled SHAs (1×: 20 μg/ml and 0.1×: 2 μg/ml) in the absence and presence of 0.2 M L-rhamnose as a competitive inhibitor.
# [13] = Glycan microarray (RayBio Glycan Array 100), whole array profile and L-rhamnose competition; type: binding; settings: for carbohydrate-binding specificity compared with archived SHA: side by side on Glycan Array 100
# Procedure: Glycan microarray analyses—Microarray analysis was performed according to the manufacturer recommendations using RayBio Glycan Array 100 (RayBiotech, Norcross Ga.) slides. Each slide contains four sub-microarrays printed with 100 synthetic glycans. Briefly, 200 μL of 0.1 mg/mL of both archived SHA and rSHA were dialyzed overnight at 4° C. against 1×PBS dialysis buffer to avoid contaminating samples with amines prior to biotinylation. Dialyzed samples were incubated with biotin-containing reaction solution at 22° C. for 30 min. Sub-arrays were blocked for 30 min at 22° C. After biotinylated SHA samples were diluted with 1×PBS, 400 μL of each sample was added to each sub-array. Slide #1 sub-arrays were incubated with 400 μL of 20 μg/mL (1×) or 2 μg/mL (0.1×) SHA, in the absence or presence of 0.2 M L-Rhamnose. Slide #2 sub-arrays were incubated with 400 μL of 20 μg/mL (1×) or 2 μg/mL of rSHA (0.1×), in the absence or presence of 0.2 M L-rhamnose. Slides were incubated for 16 h at 4° C. for highest intensities. Washing was performed according to the manufacturer's protocol, followed by incubation with Cy3 dye-conjugated streptavidin. The slides were incubated at 22° C. for 1 h with gentle shaking, then washed multiple times as recommended. The signals were visualized using an Agilent DNA microarray scanner (Model G2505C; Agilent, Santa Clara, Calif.) at 532 nm for Cy3. Data extraction and analysis was performed after subtraction of the background and normalization to the internal references provided by the manufacturer, using an ImageJ Protein Array Analyzer software (28).
# as §1
# [14] = Solubility of recombinant SHA proteins; type: physicochemical; settings: expressed in E. coli
# Procedure: Due to solubility issues various fusion proteins of the recombinant SHA were prepared and expressed in E. coli. Of those, a yeast SUMO(SMT3)-fusion protein was successfully purified for comparing carbohydrate-binding specificity with that of archived SHA. Briefly, SMT3-fused SHA(A108E) was prepared by insertion at the SMT3 and Ulp1 cleavage sites of pET32b/SHA(A108E). E. Cloni® (Lucigen) was transformed by pET32b/SMT3-SHA(A108E). […] SHA(A108E) was cleaved off from SMT3 bound to the column by incubating with UPL1. The resulting SHA(A108E) was purified by gum arabic gels. The authenticity of SHA(A108E) was confirmed by SDS-PAGE and glycan microarray analyses.
# as §1, with “expressed. This protein was refolded on the nickel NTA column in the presence of D-galactose, and soluble recombinant SHA (rSHA) was cleaved off from the Trx-SMT3 portion using His-tagged Ulp1 (8). The purified rSHA is shown in FIG. 6C, together with archived SHA.” for “expressed.”
molecule,measurement,setting,value
"rSHA: recombinant SHA(A108E) expressed in E. coli, cleaved from Trx-SMT3 fusion; SEQ ID NO: 25 (protein, recombinant SHA) ARTVCYAAHVEGIGWQGAVCDGAVAGTTGQSRRMEAAVIATSGTGGVCANAHLADIGWQGWACAADGKAVTVGTTGQSRRMEALGLQVGNGSVAAQAHVADYGWLNAEGGNPVYVGTTGQSRRMEAVRIWV",binding signal to β-Gal-,[1],Strong signals
same,binding signal to α-Rha-,[2],Strong signals
same,"binding signal to Gal-α-1,3-Gal-β-1,3-GlcNAc-β-",[3],Strong signals
same,"binding signal to Gal-α-1,3-Gal-β-1,4-Glc-β-",[4],Strong signals
same,"binding signal to Gal-α-1,4-Gal-β-1,3-GlcNAc-β-",[5],Strong signals
same,binding signal to Blood B antigen trisaccharide,[6],Strong signals
same,binding signal to Blood B antigen tetrasaccharide,[7],Strong signals
same,"binding signal to Gal-α-1,3-Gal-β-",[8],Strong signals
same,"binding to Gal-α-1,4-Gal-β-1,4-Glc-β-",[9],"weaker, but still significant, binding"
same,"binding to GaINAc-β-1,3-Gal-β-1,4-Glc-β-",[10],"weaker, but still significant, binding"
same,"binding to Gal-α-1,4-Gal-β-1,4-GlcNAc-β-",[11],"weaker, but still significant, binding"
same,binding to the remaining 89 chip-immobilized glycans,[12],did not bind
same,"binding to all glycans, except α-Rha, in the presence of L-rhamnose",[13]; 0.2 M L-rhamnose as competitive inhibitor,competitively inhibited
same,carbohydrate-binding specificity compared with archived SHA,[13],identical carbohydrate-binding specificities; also recorded: same glycan specificity profile
same,carbohydrate-binding specificity compared with archived SHA,[13]; listed as SHA(A108E),same carbohydrate-binding specificity
same,solubility,[14],soluble
